Assay [1] addresses p85α, the regulatory subunit of PI3K, endogenous, mouse primary CD4+ T cells (mouse, UniProt P26450 2-724). The assay is described as follows: co-IP (anti-ICOS IP, immunoblot), mouse CD4+ T cells unstimulated or stimulated with anti-CD3, anti-ICOS or both (FIG. 6a).
Assay [2] deals with T1, TANK-binding kinase 1 (TBK1), endogenous, mouse primary CD4+ T cells (mouse, UniProt Q9WUN2 1-729).
T1 construct: also called endogenous TBK1
T1 sequence (looked up): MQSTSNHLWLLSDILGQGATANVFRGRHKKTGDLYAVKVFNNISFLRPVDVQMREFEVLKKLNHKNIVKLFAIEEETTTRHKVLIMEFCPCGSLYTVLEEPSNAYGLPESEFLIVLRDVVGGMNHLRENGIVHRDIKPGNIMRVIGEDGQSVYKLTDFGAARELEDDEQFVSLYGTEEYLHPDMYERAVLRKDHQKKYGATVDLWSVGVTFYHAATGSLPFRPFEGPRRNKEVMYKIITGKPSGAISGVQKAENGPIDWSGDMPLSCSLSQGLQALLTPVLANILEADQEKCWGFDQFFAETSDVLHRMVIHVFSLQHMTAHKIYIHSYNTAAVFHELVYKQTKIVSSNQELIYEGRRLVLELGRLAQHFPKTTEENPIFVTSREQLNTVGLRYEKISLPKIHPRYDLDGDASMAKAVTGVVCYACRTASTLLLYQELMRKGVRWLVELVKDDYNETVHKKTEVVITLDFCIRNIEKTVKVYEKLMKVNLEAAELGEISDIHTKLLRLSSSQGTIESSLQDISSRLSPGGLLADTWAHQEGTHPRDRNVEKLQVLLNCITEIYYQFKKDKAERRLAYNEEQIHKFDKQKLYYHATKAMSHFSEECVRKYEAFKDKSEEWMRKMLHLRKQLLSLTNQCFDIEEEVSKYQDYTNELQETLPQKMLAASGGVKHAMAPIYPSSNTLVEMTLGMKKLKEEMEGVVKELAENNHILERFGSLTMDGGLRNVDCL
The assay is described as follows: co-IP (anti-ICOS IP, immunoblot), mouse primary CD4+ T cells (FIG. 2a). From the text:
IPs or whole cell lysates (WCL) were immunoblotted with the indicated Abs. 5% WCL was used as input to control for IP Western. […] Jurkat T cells transfected with WT ICOS, mIProx, YF or tailless (TL) ICOS plasmids were stimulated with anti-CD3 plus −ICOS mAbs prior to IP and immunoblotting. […] In vitro activated primary mouse CD4⁺ T cells were stimulated with anti-CD3 plus the indicated costimulatory mAbs, and IP or WCL were subjected to immunoblotting with the indicated Abs. Shown are representative of three experiments.
The human leukemic Jurkat T cell line, JTAg, was previously described (Li, J et al. J Immunol 2013, 191(1): 200-207; Rolf J et al., J Immunol 2010, 185(7): 4042-4052) and the HEK 293T cell line was obtained from ATCC. These cell lines have not been recently STR profiled but tested negative for mycoplasma contamination. JTAg cells in logarithmic growth phase were transfected with plasmid DNAs by electroporation and incubated for 24 hours.
A general note: In western blotting, separated proteins are transferred to a membrane and probed.

Assay [3] has as its target TRAF5, endogenous, mouse primary CD4+ T cells (mouse, UniProt P70191 1-558). The assay is described as follows: anti-ICOS IP and immunoblot, mouse primary CD4+ T cells restimulated with anti-CD3 plus anti-ICOS (FIG. 14).
Assay [4] has as its target T2, TRAF2, endogenous, mouse primary CD4+ T cells (mouse, UniProt P39429 2-501).
T2 sequence (looked up): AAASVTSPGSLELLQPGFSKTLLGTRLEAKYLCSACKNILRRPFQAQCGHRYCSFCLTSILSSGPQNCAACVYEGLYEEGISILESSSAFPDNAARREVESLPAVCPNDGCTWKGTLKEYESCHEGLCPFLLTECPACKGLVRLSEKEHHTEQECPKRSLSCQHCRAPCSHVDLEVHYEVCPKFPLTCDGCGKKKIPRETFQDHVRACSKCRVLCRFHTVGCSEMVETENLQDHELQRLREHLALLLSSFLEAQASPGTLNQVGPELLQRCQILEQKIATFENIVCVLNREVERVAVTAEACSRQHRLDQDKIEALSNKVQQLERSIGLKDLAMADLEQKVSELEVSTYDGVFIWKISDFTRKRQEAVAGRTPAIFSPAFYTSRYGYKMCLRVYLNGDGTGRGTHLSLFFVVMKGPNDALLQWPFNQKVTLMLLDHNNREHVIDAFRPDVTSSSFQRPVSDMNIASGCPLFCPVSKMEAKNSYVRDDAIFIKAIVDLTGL
The assay is described as above.

Assay [5] has as its target T3, IKKϵ, endogenous, mouse primary CD4+ T cells (mouse, UniProt Q9R0T8 1-717).
T3 construct: also called IKKi
T3 sequence (looked up): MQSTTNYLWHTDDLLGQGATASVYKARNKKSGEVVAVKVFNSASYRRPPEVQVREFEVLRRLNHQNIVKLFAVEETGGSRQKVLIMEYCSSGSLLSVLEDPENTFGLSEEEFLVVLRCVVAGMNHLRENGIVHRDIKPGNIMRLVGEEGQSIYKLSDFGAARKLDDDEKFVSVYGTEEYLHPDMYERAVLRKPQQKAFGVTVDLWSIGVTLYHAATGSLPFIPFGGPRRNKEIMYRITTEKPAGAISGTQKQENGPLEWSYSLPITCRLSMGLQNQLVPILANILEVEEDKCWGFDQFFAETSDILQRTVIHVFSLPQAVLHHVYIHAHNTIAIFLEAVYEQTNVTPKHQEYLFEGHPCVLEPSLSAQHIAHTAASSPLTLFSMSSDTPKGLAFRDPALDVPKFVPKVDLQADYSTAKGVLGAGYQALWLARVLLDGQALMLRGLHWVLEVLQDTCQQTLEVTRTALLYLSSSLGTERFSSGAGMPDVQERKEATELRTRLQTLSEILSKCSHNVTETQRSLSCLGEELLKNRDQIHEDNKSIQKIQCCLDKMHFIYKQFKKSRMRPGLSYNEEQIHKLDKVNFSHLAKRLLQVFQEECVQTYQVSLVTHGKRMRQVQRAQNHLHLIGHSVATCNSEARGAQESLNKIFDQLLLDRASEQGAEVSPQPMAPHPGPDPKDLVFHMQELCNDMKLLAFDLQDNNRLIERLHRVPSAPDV
The description is as above.

For assay [6], the target named is T4, TRAF3, endogenous, mouse primary CD4+ T cells (mouse, UniProt Q60803 1-567).
T4 sequence (looked up): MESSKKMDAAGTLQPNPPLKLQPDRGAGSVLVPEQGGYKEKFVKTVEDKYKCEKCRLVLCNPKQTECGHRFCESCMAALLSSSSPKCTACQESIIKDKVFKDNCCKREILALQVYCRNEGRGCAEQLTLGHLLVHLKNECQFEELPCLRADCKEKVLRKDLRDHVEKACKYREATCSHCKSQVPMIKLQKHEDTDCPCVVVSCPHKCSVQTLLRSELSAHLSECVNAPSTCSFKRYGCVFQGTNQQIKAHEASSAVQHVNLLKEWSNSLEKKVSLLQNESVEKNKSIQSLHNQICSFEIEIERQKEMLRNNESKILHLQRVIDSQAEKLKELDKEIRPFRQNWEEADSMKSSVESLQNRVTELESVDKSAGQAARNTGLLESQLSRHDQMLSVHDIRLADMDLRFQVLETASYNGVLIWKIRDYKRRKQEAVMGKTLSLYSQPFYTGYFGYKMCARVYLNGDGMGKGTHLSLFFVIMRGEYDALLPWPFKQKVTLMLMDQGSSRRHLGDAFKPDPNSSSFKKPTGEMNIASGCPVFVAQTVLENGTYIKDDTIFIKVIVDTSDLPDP
The description is as above.

The source of these data is US20180369326A1 (LA JOLLA INSTITUTE FOR ALLERGY AND IMMUNOLOGY, published 2018).

TRAF5, endogenous, mouse primary CD4+ T cells, sequence (P70191 whole entry): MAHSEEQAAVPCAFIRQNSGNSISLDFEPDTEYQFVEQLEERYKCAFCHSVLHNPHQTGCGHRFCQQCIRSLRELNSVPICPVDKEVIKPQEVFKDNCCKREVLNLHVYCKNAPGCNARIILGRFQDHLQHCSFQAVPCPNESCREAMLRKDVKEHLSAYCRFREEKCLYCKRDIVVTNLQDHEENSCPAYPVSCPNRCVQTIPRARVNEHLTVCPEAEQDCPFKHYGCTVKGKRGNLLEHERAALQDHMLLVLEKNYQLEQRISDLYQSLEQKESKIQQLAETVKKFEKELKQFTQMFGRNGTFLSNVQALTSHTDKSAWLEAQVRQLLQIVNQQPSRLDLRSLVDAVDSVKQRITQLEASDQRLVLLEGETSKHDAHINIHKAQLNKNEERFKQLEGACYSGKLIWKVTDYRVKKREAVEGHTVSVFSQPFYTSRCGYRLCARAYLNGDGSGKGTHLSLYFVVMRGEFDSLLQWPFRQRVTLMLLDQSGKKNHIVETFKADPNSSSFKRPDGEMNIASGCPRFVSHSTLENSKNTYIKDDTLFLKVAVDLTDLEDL
p85α, the regulatory subunit of PI3K, endogenous, mouse primary CD4+ T cells, sequence (P26450 2-724): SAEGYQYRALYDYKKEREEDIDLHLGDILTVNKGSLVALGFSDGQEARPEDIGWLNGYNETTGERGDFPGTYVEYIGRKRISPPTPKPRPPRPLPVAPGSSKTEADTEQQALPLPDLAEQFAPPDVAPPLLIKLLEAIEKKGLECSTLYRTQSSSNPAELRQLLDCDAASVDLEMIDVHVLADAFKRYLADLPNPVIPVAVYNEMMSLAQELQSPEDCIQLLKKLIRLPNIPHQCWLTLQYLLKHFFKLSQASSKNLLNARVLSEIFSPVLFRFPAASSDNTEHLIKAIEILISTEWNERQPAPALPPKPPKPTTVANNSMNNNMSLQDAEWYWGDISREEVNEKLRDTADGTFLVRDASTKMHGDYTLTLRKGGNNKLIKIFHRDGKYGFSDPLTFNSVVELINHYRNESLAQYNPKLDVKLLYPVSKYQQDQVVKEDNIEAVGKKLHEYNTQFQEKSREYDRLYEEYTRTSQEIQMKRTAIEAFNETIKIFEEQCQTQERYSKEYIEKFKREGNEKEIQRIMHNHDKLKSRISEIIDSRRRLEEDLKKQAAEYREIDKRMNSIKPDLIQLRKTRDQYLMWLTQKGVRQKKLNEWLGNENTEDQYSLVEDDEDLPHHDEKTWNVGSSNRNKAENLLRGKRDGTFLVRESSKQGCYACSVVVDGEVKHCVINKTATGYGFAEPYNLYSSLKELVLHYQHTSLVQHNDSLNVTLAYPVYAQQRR

B1: ICOS, endogenous, of mouse primary CD4+ T cells (receptor)
chain: EINGSADHRMFSFHNGGVQISCKYPETVQQLKMRLFREREVLCELTKTKGSGNAVSIKNPMLCLYHLSNNSVSFFLNNPDSSQGSYYFCSLSIFDPPPFQERNLSGGYLHIYESQLCCQLKLWLPVGCAAFVVVLLFGCILIIWFSKKKYGSSVHDPNSEYMFMAAVNTNKKSRLAGVTS
Turning to B1, the binding result in assay [1] is recorded as “binds”; in assay [2], “binds”; in assay [3], “no binding”; in assay [4], “no binding”; in assay [5], “no binding”; in assay [6] it was “no binding”.
